Measurements: patent US7981863B2, “Treatment of Parkinson's disease with PDGF” (Neuronova AB, priority 2001, dated 2011)

System: Healthy Rats
Assay: ICV infusion in healthy rats, BrdU / NeuN labelling
Type: in vivo, rat
Method: Male rats (12 hours light/dark regime; feeding and drinking ad libitum; 5 animals in standard cage) were infused (Alzet minipumps) in the left lateral ventricle with human recombinant PDGF-BB for 7 days at a daily dose of 36 ng/day (8 animals/group). Human recombinant BDNF (brain derived neurotrophic factor) was used as a positive control (Pencea V et al., J. Neurosci Sep. 1 (2001), 21(17):6706-17). Bromodeoxyuridine (BrdU) was also included in the infusion vehicle (artificial cerebrospinal fluid) to enable measurement of proliferation by quantitation of BrdU incorporation in the DNA. Animals were sacrificed at 7 (proliferation) or 28 days (neurogenesis) after start of treatment and brains were dissected and prepared for sectioning and immunohistochemistry (Pencea V et al., J. Neurosci Sep. 1 (2001), 21(17):6706-17).
Proliferation was measured by BrdU incorporation and diaminobenzidine (DAB) staining of HRP conjugated secondary antibodies (FIG. 7). Cells were counted in a phase contrast microscope. Neural phenotype was assessed by staining for neuronal marker NeuN by immunocytochemistry using a fluorescence readout. The secondary antibodies were labeled with FITC or Alexa Fluor568. In double staining analyses designed to measure neurogenesis, BrdU and NeuN were quantitated by fluorescence (above) and counting of cells was done in a confocal microscope. For further experimental details, see Pencea V et al., J. Neurosci Sep. 1 (2001), 21(17):6706-17. A number of brain regions were analysed.

B1: PDGF-BB: human recombinant PDGF-BB, platelet derived growth factor B-chain homodimer (protein)
chain: SLGSLTIAEPAMIAECKTRTEVFEISRRLIDRTNANFLVWPPCVEVQRCSGCCNNRNVQCRPTQVQLRPVQVRKIEIVRKKPIFKKATVTLEDHLACKCETVAAARPVT
Cell count (BrdU, proliferation) along the lateral ventricle wall (7-day group, ICV infusion 7 days, 36 ng/day, mean of two sections, mean +/- sem): 216 +/−25 | number of proliferating cells in the subventricular zone (28-day group): no such statistically significant effect | neurogenesis in the striatum (28-day group, in comparison to vehicle treated animals): significantly increase neurogenesis | BrdU positive cells in the dentate gyrus, the CA1 and the alveus (28-day group, in comparison to vehicle-treated animals): no significant effect | BrdU positive cells in the striatum (28-day group, cells counted in 300 × 300 μm squares): 40 ± 6.8 (p < 0.01 to vehicle, ANOVA)
